Where a chain is given by its changes, count along the chain named. Like-named read-outs stand apart in the source and are kept apart here. Each block holds one binder with its values, some of them ahead of it.
Columns and labels:
[1] = biological target: T1, human CTLA-4 expressed on cells (293T cells stably transfected with human CTLA-4); in vitro-activated human … (human, UniProt P16410 36-223); assay: FACS
[2] = biological target: T1, human CTLA-4 expressed on cells (293T …); assay: FACS; remark: listed apart in the source

B1: 4-E03 (antibody, V domains shown)
VH: EVQLLESGGGLVQPGGSLRLSCAASGFTFSDYYMSWVRQAPGKGLEWVSGISWSSRDKGYADSVKGRFTISRDNSKNTLYLQMNSLRAEDTAVYYCTTDLARYWGQGTLVTVSS
VL: QSVLTQPPSASGTPGQRVTISCTGSSSNIGAGYDVHWYQQLPGTAPKLLIYGNDNRPSGVPDRFSGSKSGTSASLAISGLRSEDEADYYCAVWDDSLNGVVFGGGTKLTVLG
- EC50 [1]: 0.13 nM

B3: 2-F09 (antibody, V domains shown)
VH: EVQLLESGGGLVQPGGSLRLSCAASGFTFKAYSMSWIRQAPGKGLEWVSGISNTGGSTDFADSVKGRFTISRDNSKNTLYLQMNSLRAEDTAMYYCARLGYSGYDDRGMDVWGQGTLVTVSS
VL: QSVLTQPPSASGTPGQRVTISCSGSSSNIGSNYVYWYQQLPGTAPKLLIYGNSNRPSGVPDRFSGSKSGTSASLAISGLRSEDEADYYCQSYDSSLSGPVVFGGGTKLTVLG
- EC50 [2]: 0.19 nM

Results, then the binder that gave them:

- EC50 [1]: 0.1 nM
B2: 2-C06 (antibody, V domains shown)
VH: EVQLLESGGGLVQPGGSLRLSCAASGFTFSSYAMSWVRQAPGKGLEWVSGISGSGGYIHYADSVKGRFTISRDNSKNTLYLQMNSLRAEDTAVYYCATYSSGLHDAFDIWGQGTLVTVSS
VL: B1 VL with G52D, D54N, N55K, V92A, V100W

- EC50 [1]: 0.15 nM
B4: 5-B07 (antibody, V domains shown)
VH: EVQLLESGGGLVQPGGSLRLSCAASGFTFSSYSMNWVRQAPGKGLEWVSAISGSGGSTYYADSVKGRFTISRDNSKNTLYLQMNSLRAEDTAVYYCARDRVEMNQWLADWGQGTLVTVSS
VL: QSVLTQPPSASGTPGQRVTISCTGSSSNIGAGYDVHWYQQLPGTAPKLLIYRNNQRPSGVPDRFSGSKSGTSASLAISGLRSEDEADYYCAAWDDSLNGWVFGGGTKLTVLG
